experiment: soluble on expression in E. coli; label from the status in PepcDB or PDB records

| Sequence | soluble on expression in E. coli |
| --- | --- |
| MFENTKKALETFRTAIECVKCKKPRGDLQYLGSSCKHAYCWECIATFQQKPSGKRSSVARHMCPSCAFPLDTSKITEAHMLKTCFDTLSELNDLLQKVGTTSLTQAEFACTQNIFNKEKTPADAVEKFLETQAHMPDEMGQLGEEDDDLMCKDENRENSNSPELDIFHDYSKEASPTRNSTKRPSTVSVHERKPKRTLTEILQRRSTAPAATGVATYAQAFGSSSNPVKAEIIEEDIFSKAIPLTKRQASMSASAKKQPKLEPEEPEEVPSTSRSRKNSIKSDKIERRSQSPMSFGEKSMSVKSEQRRSSYGTRRGEAVLVNSIRNNRIPQLRSAVEAGTCVNEKEDGKTPLYVAVENSSLEAVKILVEAGAVINASCGSTLETTLHEAVRRQNTQIVEYLLSKGASIKIRNIAGKTVEEMAKSDPKIRKIIEKFKTEQRVLQPVVAPPKSRLHFVQLIDEKMLTESEKRKLPGKINIVPADMDSPTHVVVTVDLKTRVLNINKEHIGEILKAIIKSGMIVSRDWLRACIIDPSKVDDDRSYMVQKVRWMEGEVFENTIEQWKKTITKMQPKLFAGCKFFIPKPKYNFLDRPALFEIIRSAGGQAAAREPIIDEKDPPPYHNANLKPNFVLYSLTHDIGDKFRDCTKYNLVSEQWLIEAILGCSITTPPH | not soluble |
| MKKTYYLFNPGELSRKDNTIRFVPIQEGENGQEQAGQARYIPVEGISDFYVFGSLRANSSLYNFLGSNDIAVHFFDYYENYTGSFMPRDFLLSGKMLLAQASAYKNKKKRLFLARKFIEGAASNMQKNLAYYNNRGKDMQPMMELIDKYSLRLKETTTIEALMGIEGNIRQAYYDAFNLIIDPFEMGVRSKQPPQNEVNALISFGNMMCYTLCLKAIHQSQLNPTISFLHTPGERRYSLCLDISEVFKPILVDRTIFKVMNKRIIQAKHFDKQLNKCILNPSGKKLFVQAFEERLSETIRHRKLNRSVSFRHLVKLECYKIAKDILGIEEYQPFKMYW | not soluble |
| SPSAEERQKEERTAGLNETVPQATDGELPDDKLKGYELGRDEEKESHRQETLGNLYDYFEKKDETREQEISEEAASDGLHPIERSVSRYEETSQMVHSFYEPPAYDYEKEALREELDMIRSELATLKEEKEEEIDHLELLEKSYRMAAKYFPASGDANSRDAYTRSQERPADAPAPKTAVTAERAALPAVELLPEKKAIVSSLDQPMSDSAFIAEYGHKERNFGFRSADVPASSVTRNTLRVVVDRTTTLQHGDFVQLRLLESARLHDLSIPRHTRLMAQARIDGNRMKLHITSIEYGGRIVSVQLSAFDTDGQEGVFIPGSEEVSALKE | not soluble |
| MGIRPSADEQDQCFMTRITIVTDAWHPQVNGVVRSIENTNTELARLGVDVRMVTPQSFYSIPCPTYPEIRLSVAGYRRVAVEIEKSQPSFVHIATEGPLGFMARRWCVKNHMRFSTSYHTRFPEYVAARFPVPESWLYAFVRWFHNGGNTCMVATPSLETELEARGVRNLKRWSRGIDAELFHPRTKTKLPFDLPRPIFMTVGRVAVEKNLPEFLDLDLPGSKIVIGDGPARYELQEKYPDVLFTGIKTGEELADAYAQADVFVFPSKTDTFGNTILEALASGVPVAAFPVTGPIDILGGNPAAGALDNNLRDACLAALHCSPQAALALSKSYSWEKASRQFLDNVIHAAGKSLPLLSRSRLAAAALEHHHHHH | not soluble |
| MSDRHFDELATRFAEKIYGGAKGAIRLAVLQADLAEALPERPLRVLDIGAGLGHMSLWLAARGHRVTLAEPAQPMLDGARQRFAEAGQAAEFIQAPWQELLGQLTEPYDLVLCHAVLEWLAEPHAILPVLHQLCAPGGWLSLAFYNRDALIYRNLLKGHFRKLRKERFAGEGQSLTPQRPLDPRELEQALAARWRIEARSGVRVFHDYMPSEFQAKAERLDLVEMELAYRRHPAFAGLGRYLHWLCRPQ | not soluble |
| MHAITNSGWVEVITGSMFSGKTEELLRRLRRAEIAGQDVAAVTPAVDDRYGEATLGSHAGRSWAATVVEPTAEGVASIPTLLNGEQVVAIDEANFFPAELVDVCQELAADGRRVVLSGTDQTFRGEPFEPVPQLMAIAEYVDKMRAICMQCGEPATRNQRLIEGEPAHYDDPTVMVGAEETYEARCRNCHVVRRELEHHHHHH | not soluble |
| MIDDRQEEKMIKENVYFDGNVKSLGFSQQDGESTVGVMAPGQYTFGTGAPERMTVVKGALTIKRVTDADWVTFTAGEAFEVAGNSSFDLQVEVATAYLCEFLPA | not soluble |
| SSSTSHSSLKSPSHMEKYPQKEKTKEDLDSRSNLHLPETKFSELSKLKNDDMEKANHIESVIKSNLPNCANSDTDFMGLFKSSRYDPSISFSGMSLSDTMTLRGSVQNKLNPRPGKVVIYSEPDVSEKCIEVFSDIQDCSSWSLSPVILIKVVRGCWILYEQPNFEGHSIPLEEGELELSGLWGIEDILERHEEAESDKPVVIGSIRHVVQDYRVSHIDLFTEPEGLGILSSYFDDTEEMQGFGVMQKTCSMKVHWGTWLIYEEPGFQGVPFILEPGEYPDLSFWDTEAAYIGSMRPLKMGGRKVEFPTDPKVVVYEKPFFEGKCVELETGMCSFVMEGGETEEATGDDHLPFTSVGSMKVLRGIWVAYEKPGFTGHQYLLEEGEYRDWKAWGGYNGELQSLRPILGDFSNAHMIMYSEKNFGSKGSSIDVLGIVANLKETGYGVKTQSINVLSGVWVAYENPDFTGEQYILDKGFYTSFEDWGGKNYKISSVQPICLDSFTGPRRRNQIHLFSEPQFQGHSQSFEETTSQIDDSFSTKSCRVSGGSWVVYDGENFTGNQYVLEEGHYPCLSAMGCPPGATFKSLRFIDVEFSEPTIILFEREDFKGKKIELNAETVNLRSLGFNTQIRSVQVIGGIWVTYEYGSYRGRQFLLSPAEVPNWYEFSGCRQIGSLRPFVQKRIYFRLRNKATGLFMSTNGNLEDLKLLRIQVMEDVGADDQIWIYQEGCIKCRIAEDCCLTIVGSLVTSGSKLGLALDQNADSQFWSLKSDGRIYSKLKPNLVLDIKGGTQYDQNHIILNTVSKEKFTQVWEAMVLYT | soluble |
| MFELVDNIAQTAVIKVIGVGGGGGNAVNHMAKNNVEGVEFICANTDAQALKNIAARTVLQLGPGVTKGLGAGANPEVGRQAALEDRERISEVLEGADMVFITTGMGGGTGTGAAPIIAEVAKEMGILTVAVVTRPFPFEGRKRMQIADEGIRALAESVDSLITIPNEKLLTILGKDASLLAAFAKADDVLAGAVRGISDIIKRPGMINVDFADVKTVMSEMGMAMMGTGCASGPNRAREATEAAIRNPLLEDVNLQGARGILVNITAGPDLSLGEYSDVGNIIEQFASEHATVKVGTVIDADMRDELHVTVVATGLGARLEKPVKVVDNTVQGSAAQAAAPAQREQQSVNYRDLDRPTVMRNQSHGSAATAAKLNPQDDLDYLDIPAFLRRQAD | soluble |
| GMSSSDRYMQRGVSSQKEDVHKAIKSIDKGIYPRAFCKIIPDILGGDPEYCNIMHADGAGTKSSLAYVYWKETGDISVWKGIAQDAVIMNIDDLICVGAVDNILLSSTIGRNKNLIPGEVLAAIINGTEEVLQMLRDNGIGIYSTGGETADVGDLVRTIIVDSTVTCRMKRQDVISNENIKAGNVIVGFASYGQTSYETEYNGGMGSNGLTSARHDVFNNVLASKYPESFDPKVPENLVYSGEMNLTDPYLNVPLDAGKLVLSPTRTYAPLMKEIIHQYKGKLDGVVHCSGGGQTKVLHFTDATTHIIKDNLFDVPPLFQLIQGQSNTPWEEMYKVFNMGHRLEIYTDAAHAEGMIAIAKKFNIEAKIIGRVEAPVAGKRLTITGPQGTEYTYA | soluble |
| GPGSMPTRSHGDEEYYRQSRYKPVSIEDTPMFWKERADKCYGTQQWKAAANAYSESIKRDGAFLTCVMNRSACYLQMADYKRAIEDCSLALTMLANTPASEVTQERYRGLMTKLHARRGAAYCWADDLKSGAADLRMAAAYRDPTSDDDVAADLAMIEAQMKERGITEVDACVDPLSTRMQEAAAQYYQGSYEAAEATYSAILKEQPFHMKAQGNLAATLLRAGKFTQALQVCDGIVQFCSEAAAALEQPGGLAGDQLDSDDEEDEDEPDWAASSTESAPEEVEGASNKDTLVRQRRAAAKTLGEQSGHVYMLLKAYVRSAAALCGMKEYHKAHGYLERAMRITPYDNDLREDCNRLAEKIRMDTLITASAGSARTQKAAV | soluble |
| GPGSMAFGNASKGTDDYTPEEHLTAAVMEYKKLEAANQNSVEHMYNVLSSPFKIGSKPCEAIRGDALRCLSEIIGNFTAKSTSGTDGSTVMANSASIVSQELPPIHRCYESVLHYESCVLERTLSRHNSMVATFEARRLREADSAREAAAAGGDI | not soluble |

Reference: the DeepSol protein solubility set
